Test results: a protein production outcome set (Wang et al. 2014)

Assay: label from the status in PepcDB records

Sequence	protein production
MNKIQVLDPVTIDKIAAGEVIERPASVVKELVENAIDAGATAIVTEIEEGGISMIRIADNGCGMDASDVPNAFLRHSTSKIRTVEDLVHIGSLGFRGEALSSIAAVSQVEMITKTKDQVLGTRYRIAGGKEEELDETGARDGTTFLIRQLFYNTPARRKFLKTPMTEASHVGDLLTRMALSHPEISFQFINNGQSKLHTSGNGNLKDVIYHVYGREIAANLLAADYESPGLKIRGFLGKPLISRGNRNFENYFINGRYVKSSIISKAIEDAYKDFTMQHKYPFVVLHIEIDGEHVDVNVHPTKMELRFNNQQEVYNSIYAAVDHGLHAEELIPHVEVDAPKAAAPMKQEGGAPHAAQKKDNPVVPDRTTSVQPAPSAKKSVPAPEERTLDYFMQKMKERVAAYHAQQNQEAPKKAPDVKVSAQPSEDRREAPSDRVCETPEYAAQQLNLFEENLVERKVQAEYKIIGQVFETYWLVEFNDSLYIIDQHAAHERVLYEKTLKSMKTREFTSQFISPPIVLDLSMQEAELLNQYMDQFTRIGFEIEEFGQESYAVRAVPGNLFGIAKKDLLLQMLDGLSDEVSRNLSPDMIDEKVASMSCKAAVKGNMKLSATEVDSLIGELLTLENPYHCPHGRPTIIAMTKRELEKKFKRIV	failed
MNKKKDILVIGFALFSIFFGAGNLIFPPYIGLTSGGEWLISFLGFIISDVGIIFLSIVAVSKAGSFQGVVGRAGKKFGITLEILMMLCLGPILVVPRTAATTFEMSISPLLGNVNPYVFSVIFFLIVFVLTIKPNKVMDIIGKVLTPLLLISLAVLIIKGIINPIGDLENVNSGKLFMTGITQGYQTMDALGTGGIVALVMASFASKGYKDKKENRMLTIKSALIACIGLAIVYGGLTFLGATSSTLYDSSISQTTLLMNITNAILGSTGTIMLAIVIGLACLTTAVGLTSVTAKYFEDVSNKKLKYKYIVIAICVFSALSSNLGVDKIIEIAVPILSLIYPVSILLVVMSIFEKFVPNNVVVKGATYATLLISLLTVIDSLGIKFEFVHKLPLANLGFNWVVPAIVGGLIAGLVFRKREVVSLEESY	failed
MNKLKYYCLRYQPYLLGVAFFLAIFLVWAIGRAFGFASLHSLLAGIGVFLLLSAGYVLLLYRGVGQHHNLEGLLRDDADQAVLSAAPADREEVSLLRERLLQGIERLHSNKPRGTSNKDALYALPWYLVIGQPAAGKSTMILQSGLNFPYAEREGVRVAGLGGTRNCDWFFSSEAVLLDTAGRYMNSPEEAGKWRGFLQLLRQHRQRRPLNGLIVSVSIADILHGSVEDQERVAKRLRERIQESCALLEVRLPIYLVFTKCDLIPGFTAFYRQLDDAARGEVMGKTFSHKGYEQADWGQRFSNAMDELTRYWGQMASQQLVQQDIQVTRRNDAAYRFPLELAALKPRLHQFVDSLLRANPYQNAEMLRGFYFTAALQADEAQWGCHGQHVAERFALEHAEGTGTAGSQPAPLFINSLFRKVIIPDQHLVALYTSNHRERRRKAGWVGAAGLAALVLCSLWGWSYLNNRATLASIADELAQAKADDQAASGQYTAWRSLDRLRFWAAHYHEQHHAKGVPLGMRLGLYQGHEVEPLLRDRYFATLQNVMLKPTADNLTRTLYLLTTLKVYQRNTRELQPVSGIDSVEAEALPHDNRAQSIANFGKAALDTYVMLSPGQREHADPAFLKAHLPDYWYPAIARQTGKSMAAAGSEAGGNQDYLYASRQITFYSDQIREPDVPRILDNAFLMSSSRNYIDSLRAQSLRAIETITLESDTLFAFGRADFQSLKNEGQHQLSAIASKLLNTPNIGKIIISGHADQLGDSQGNLQVSKQRAQTIRTYLVGKGVPAELVVAQGEGSRKPLVNCDMQQPRTQLIKCLEPNRRVEIEVRGLN	failed
MNKLYIGNLSPAVTADDLRQLFGDRKLPLAGQVLLKSGYAFVDYPDQNWAIRAIETLSGKVELHGKIMEVDYSVSKKLRS	not failed
MNKMLYGWLLAACCGLPPAFAGDSVDVLAQPALHGPQALRAVLQDVARADARLVAVGERGVVLLSDDNGATWRQATAVPVGVSLTAVQFIDARNGWAVGHAGVVLHSQDGGEHWSVQLDGKRAAALEVQAAEAAADERRLAAAQRLLADGADKPLLALNFTDARNGLVVGAYGVAMRTDDGGRSWQSEIGRLPNGRGLHLYALARQGNQVYIAGEQGLLLRSRDGGEHYEALHGPYDGSYFAATVLPDGRLLLGGLRGSLFASDDGGDSFQALANPTPASINGLRVAGGQLLLANQAGMLLRSGLGAFAAQPVAVSDGLPLTAATTAADGSIVAVGMAGARRLEPSSLEHHHHHH	failed
MNKMNNNILKKNDLSSQEESTHEIQDVLDQLDFYTYKIALFLDIDGTLADFKIDPLACFISKKILKSIQDIQSKGCLVSVITGRDYNSAQKLLADVSLPIAALHGLDIHINEKTQLNAINQNNQIFIQNFLCRLKEEIKYQPDLSIENKHHSIALHYRKNPDLYDIAKHIMNTVKKDNDEFKVIEGKYVFELIPKNSNKGSAIKTLLSYFDAEHYLSIFIGDDITDEDGFNMVNQLEGISIKVGSGKTVARFRLKNIEHVEEFLNLLSHHFPDSSTQITKKYGEQHV	failed
MNKNLNTFTSMRNDRQLHLYLAWGCPFCHRILASLAITKLDDNISITWMENIKGEAGWKMYFIEDPLFNSDSLKAVYQQLEPTVEHRYSVPLLVDKKNNLLLSTSSPEIVRYVAKGFDDAFSVAYDLIPNKLIKDIDEMNQWLHDKINRAVYLVGFATQQSDYEYKLYELFKALDELEERLKKQLFLFGNQLTESDLYLLATLERFDNIYFCLFKCSLKRIADYPALFRYHNQLRGMESLASTYQPVLTKEHYFMSTMHVLGEARELNPSKIIPIDYYP	failed
MNKQNKQNKFSPEVRERSVRLVQEHRGEYPSLWAAVESIAPKIGCVPSTLLEWVKRSEINNGAREGLTSSERDRLKALERENRELRRANEILKTASAFFAQAELDRVLKKLEHHHHHH	not failed
MNKRAREWVSVGITWVQDVIYVALGILLTLACAVLLLHGGVNLVGALGRDLDLQVIVQLLDRILLAMMIVELLYTVKVSFRDHLLVPEPFLLVALIAAIRRILVITAEFGAQAPSGDEQFRHVMSELGLLTVLILVLVGSVVILRRRDSAEAPR	failed
MNKRRNHKTNKAKDSLSDEETKHDVLAQEVEGGDSSSDEDDVNIVLEPSSTYYGGDTSTGDSKGLFVGGTTTRHWQRPGYSSTAEGGIVGSGVSAYSRGGVDLSLVPKPPTDFPGAHVDYSVFENEIDSLEEKPWREKGAELSDYFNYGFTEDTWREYCRRQQMMRLYSQSLMPIRTLDSGGPLHNIDSPNEPSRKVPRGQQNRRLTPAYSTLRNNFDSKFYSDGNESFSSDYVRYSRPEQTDGDDVILTLTKPTSVDES	failed
MNKSTCLMAAETPSKRWRLHCLAFSQRFVRAGPACSSREACSSPRAGWNPAGFRLPGRWSPFVALHLVCQIREALKLRSGHRTPSGAGSSMQPPPSLCGRALVALVLACGLSRIWGEERGFPPDRATPLLQTAEIMTPPTKTLWPKGSNASLARSLAPAEVPKGDRTAGSPPRTISPPPCQGPIEIKETFKYINTVVSCLVFVLGIIGNSTLLRIIYKNKCMRNGPNILIASLALGDLLHIVIDIPINVYKLLAEDWPFGAEMCKLVPFIQKASVGITVLSLCALSIDRYRAVASWSRIKGIGVPKWTAVEIVLIWVVSVVLAVPEAIGFDIITMDYKGSYLRICLLHPVQKTAFMQFYKTAKDWWLFSFYFCLPLAITAFFYTLMTCEMLRKKSGMQIALNDHLKQRREVAKTVFCLVLVFALCWLPLHLSRILKLTLYNQNDPNRCELLSFLLVLDYIGINMASLNSCINPIALYLVSKRFKNCFKSCLCCWCQSFEEKQSLEEKQSCLKFKANDHGYDNFRSSNKYSSS	failed
MNKVQSIDPLIADKFNNELRSYNLEYKLEQESLNKEIDEALKNYASKNGGLGGNRPDVKLLLNTQDPNRRVPILIEYKGLKDKLIKLDKNKLVENFKNHEPHYKNIREYALNGALHYANAILHHTSYTECIAIGITGYKDNKGGICSQIAVYYVNKSNLGMGIDVSKGEQGYSDLSFLSRKHFNDFIKRVDTLSLSDEDLERIREKKNQEIEDCLMRLNNNIYNKEKNFLSEHNRVYLVIASIIANLGIPNLVTPLNKEDLKSSDEVHQRDGDIMLRKIQSFLENKDLSPEKRQSIISSLETLLRNENNNKATNGESCLKRCFSEIVDSLGIYYKIGLSTDFTGKLFNEMYRWLGFTKDQLNDVVLTPPYVATLLARLSKVNKDSFVWDFATGSAGLLVASMNLMIEDAKKRITSPEELEQKIAHIKAKQLLGIEILSDIHTLAVLNMILMGDGSSQILNQDGLSGFDGKVNNEAFKANAFVLNPPYSASGNGMVFVEQALEKMQSGYASVIIQSSAGSGKAKEYNVRILEKHTLLASIKMPLDLFIGKSSVQTHIYVFRVNEKHDAKQRVKFINFSNDGYARANRKKAKASHNLKDTHNAKERYNEVVDLVHIGQSCLKFLSEDDYYENTIDPKNGSDWNQNKPTDTKPELEDFKRTIADYLSYEVSLILKNQMPPKR	failed
MNKWLDLILKIHVHPFLWIIAALGLLTGHMKALLCLLLIVLIHELGHAALAVFFSWRIKRVFLLPFGGTVEVEEHGNRPLKEEFAVIIAGPLQHIWLQFAAWMLAEVSVIHQHTFELFTFYNLSILFVNLLPIWPLDGGKLLFLLFSKQLPFQKAHRLNLKTSLCFCLLLGCWVLFVIPLQISAWVLFVFLAVSLFEEYRQRHYIHVRFLLERYYGKNRELEKLLPLTVKAEDKVYHVMAEFKRGCKHPIIIEKSGQKLSQLDENEVLHAYFADKRTNSSMEELLLPY	failed
MNLEKHASPDSVIVIDDLLPQHMDYASRQRNTTIWTGDVYRLVPILRHYRPDLDIRVYDVDMKGFGLVTRLDPSSDVLAGNYGAIEADILAGKWSFPTAAAIRDHMQPRATDLLANDLGIIAARRTAKASKQSDRRAAPALPQRRPRLSVIICAYDMAREAPRTILSATAPYQKGLKEDEYEVIVVDNGSSTPLTYDNLPPNAQIVRAPDPRQSPVFALNWAAREIAKGEILLFAIDGARIFSERLIDETVKAHDRMEDAFVFSLSWHIGPKVQMQSVPEGYGAEIEDGLIRAVRWPDESDGLFGISVLAGSSSNGFFGDITESNSFSISRTLFDRHGGFDERFTSPGGGLANLEIFRRYVTRPDARNVCLLSEGTFHQVHDSVATSGKNRWEAFASEYEAIFGGPYLRPSYHCFYQGKPRAGMVPFILQSLQG	failed
MNLHQTVEHEAAAAFAAAGIAGSPVVLQPTKNAEHGDFQINGVMGAAKKAKQNPRELAQKVADALAGNAVIESAEVAGPGFINLRLRHEFLAQNIHAALNDARF	not failed
MNLKAMDAILEDCCDIVCSDYLPSAMIKSMCIVAERINNLNKAVSLFTSNPAKAVGIYDERGSIKENKKADLVLVDIDSEYPKVVNTIVNGKTVYKRELEHHHHHH	failed
MNLLLIVVFGAILEIAVWIGIAQFISGWYVFFWFIIAFFIGLSMLRSSTSSIMPQLQQMQMSGQMGNDPAVTKKLAVAMAGFLLMLPGVVSDILALLILIPGVQTLFRNALMKTLAKRQQAMMNKMMGGMMGGDVGGNAGQNPFEDLMRQMQNMQNQQGASPYNDSNVIDGEAREVKPDQKQIEHKDK	failed
MNLLYMVLIGQIILFLIGAMYAIGQTKKTRNNMPLPLAVRLILSFSLTASAIWIWLQDPSVDYSTWVALGMTLSTVGDLFMAGLIPIGHRLIGGMITFALAHCFYVKAFLQTGISWNGFWIGLLVYGLFLIIGWFFFIRNEKQDKLFTIGALIYGLWVGGMACFAFALYYENTGIWWIPAFGGLLFVISDFIIGVTDIGGRKLKYEPLWIWFTYVAAQMCIVYVGI	failed
MNLPKVKMLQVSKCLIGLAVMMLQSCDVADNRRDMLCGNWESVEGKPDVLIYKEGEAYKVTVFRRSGLRRKLKPETYLLQEENGNLFMNTGFRIDVSYNEATDVLTFSPNGDYVRVKPQPGHPTEE	failed
MNLRGILPFAHDTLRKVVRSGDYVVDATCGNGHDTLLLAELVGINGHVLGFDIQQLAIDATNTRLENAGVSSQVELVCASHARIPEYTSKPVRAAIFNLGYLPGGDKEITTTADSTLESIGHLMELLEVGGVIILVIYHGHPAGKQEKDAVMTFCEAIPQQDFHVLSYNFINQKNDAPFVIIIEKRKPRQSLEHHHHHH	not failed
